Data on 1 molecule can be found in paper PMC8924000 (2022).

The term Kd denotes a measure of binding affinity in units of concentration.

The target of the test is recombinant YBX1 with a C-terminal 6×His tag (UniProt P67809 1-324). The test can be described thus: BLI. For orientation: In BLI a coated tip is dipped into the sample, and binding shifts an interference pattern.
recombinant YBX1 with a C-terminal 6×His tag, sequence (P67809 whole entry): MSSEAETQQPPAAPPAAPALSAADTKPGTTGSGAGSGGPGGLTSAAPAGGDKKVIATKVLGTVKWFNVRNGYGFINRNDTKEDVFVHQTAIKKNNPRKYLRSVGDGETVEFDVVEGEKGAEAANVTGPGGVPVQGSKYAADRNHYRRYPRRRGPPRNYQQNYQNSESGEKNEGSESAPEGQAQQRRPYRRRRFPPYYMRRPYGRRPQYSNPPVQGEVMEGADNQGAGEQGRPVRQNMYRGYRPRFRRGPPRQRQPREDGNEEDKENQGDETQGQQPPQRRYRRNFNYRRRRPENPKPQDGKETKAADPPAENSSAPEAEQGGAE

B1: recombinant GSDME with a C-terminal 6×His tag (natural protein)
chain: MFAKATRNFLREVDADGDLIAVSNLNDSDKLQLLSLVTKKKRFWCWQRPKYQFLSLTLGDVLIEDQFPSPVVVESDFVKYEGKFANHVSGTLETALGKVKLNLGGSSRVESQSSFGTLRKQEVDLQQLIRDSAERTINLRNPVLQQVLEGRNEVLCVLTQKITTMQKCVISEHMQVEEKCGGIVGIQTKTVQVSATEDGNVTKDSNVVLEIPAATTIAYGVIELYVKLDGQFEFCLLRGKQGGFENKKRIDSVYLDPLVFREFAFIDMPDAAHGISSQDGPLSVLKQATLLLERNFHPFAELPEPQQTALSDIFQAVLFDDELLMVLEPVCDDLVSGLSPTVAVLGELKPRQQQDLVAFLQLVGCSLQGGCPGPEDAGSKQLFMTAYFLVSALAEMPDSAAALLGTCCKLQIIPTLCHLLRALSDDGVSDLEDPTLTPLKDTERFGIVQRLFASADISLERLKSSVKAVILKDSKVFPLLLCITLNGLCALGREHS
On to B1, for which the Kd was 24.8 pM.
